Data published in paper PMC5748978.

Target: GST-Abp1^SH3 (UniProt Q62418)
Experiment: pull-down

increase of complex formation with 2 µM Ca2+ over Ca2+-free control: 46%
Substance: endogenous Cobl-like from rat brain extracts (natural protein)
